# Test results from US20250368729A1.
# Legend:
# [1] = biological target: KEN hATTR amyloid extract (human) (UniProt P02766); test: EuLISA, substrate coated on plate
# [2] = biological target: SNO hereditary (h) ATTR amyloid extract (human) (UniProt P02766); test: pulldown, labelled antibody
# [3] = biological target: KEN hATTR amyloid extract (human) (UniProt P02766); test: pulldown, labelled antibody
# [4] = biological target: Per125 wtATTR amyloid extract (human) (UniProt P02766); test: EuLISA, substrate coated on plate
# [5] = biological target: TAL ALκ liver amyloid extract; test: EuLISA, substrate coated on plate
# [6] = biological target: synthetic amyloid-like fibrils of recombinant amyloidogenic λ6 variable domain protein (rVλ6Wil); test: EuLISA, substrate coated on plate
# [7] = biological target: SHI ALλ liver amyloid extract; test: EuLISA, substrate coated on plate
# [8] = biological target: Aβ(1-40) amyloid-like fibrils (UniProt P05067); test: pulldown of 125I-labelled antibody with the substrate pellet
# Aβ(1-40) amyloid-like fibrils, sequence (P05067 672-711 limits assumed): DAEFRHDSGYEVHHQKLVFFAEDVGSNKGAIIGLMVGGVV
# [9] = biological target: hIAPP fibril (UniProt P10997); test: as above
# hIAPP fibril, sequence (P10997 34-70 limits assumed): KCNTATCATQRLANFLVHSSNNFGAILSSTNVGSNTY
substance,measurement,setting,value
murine Ig-peptide fusion Igp5 (murine 11-1F4 with peptide p5 fused to the N-terminus of the light chain) (antibody),EC50,[1],3.56 nM
same,LogEC50,[1],8.45 -log(M)
same,Max (maximal level of binding),[1],19.9
same,percent bound,[2],12%
same,percent bound,[3],15%
hIgG1 control (antibody),LogEC50,[4],7.92 -log(M)
same,Max (maximal level of binding),[4],8.38
same,LogEC50,[5],3 -log(M)
same,Max (maximal level of binding),[5],2220
same,EC50,[6],1280 nM
same,LogEC50,[6],5.89 -log(M)
same,Max (maximal level of binding),[6],39.3
same,LogEC50,[7],7.88 -log(M)
same,Max (maximal level of binding),[7],2.5
same,LogEC50,[1],9.06 -log(M)
same,Max (maximal level of binding),[1],-0.8
murine antibody m11-1F4,LogEC50,[1],2.39
same,Max (maximal level of binding),[1],294000
same,bound to substrate (pulldown),[8],4.6%
same,bound to substrate (pulldown),[9],5.1%
chimeric (c) 11-1F4 (antibody),LogEC50,[1],-1.36
same,Max (maximal level of binding),[1],19700
